In general, Kd refers to the constant that tells how readily two partners part at equilibrium. As a reminder, the stoichiometry N is the number of molecules, sites or subunits per partner or assembly.

B1: Complement Factor H SCR-18/20 fragment (domain or fragment)
chain: TSCVNPPTVQNAYIVSRQMSKYPSGERVRYQCRSPYEMFGDEEVMCLNGNWTEPPQCKDSTGKCGPPPPIDNGDITSFPLSVYAPASSVEYQCQNLYQLEGNKRITCRNGQWSEPPKCLHPCVISREIMENYNIALRWTAKQKLYSRTGESVEFVCKRGYRLSSRSHTLRTTCWDGKLEYPTCAKR
modifications: N-linked glycan chain on SCR-18
B2: Complement Factor H SCR-17/18H fragment (domain or fragment)
chain: TDCLSLPSFENAIPMGEKKDVYKAGEQVTYTCATYYKMDGASNVTCINSRWTGRPTCRDTSCVNPPTVQNAYIVSRQMSKYPSGERVRYQCRSPYEMFGDEEVMCLNGNWTEPPQCKDST
modifications: N-linked glycan chains on SCR-17 and SCR-18
B3: Complement Factor H SCR-16/20 fragment (domain or fragment)
chain: GLPCKSPPEISHGVVAHMSDSYQYGEEVTYKCFEGFGIDGPAIAKCLGEKWSHPPSCIKTDCLSLPSFENAIPMGEKKDVYKAGEQVTYTCATYYKMDGASNVTCINSRWTGRPTCRDTSCVNPPTVQNAYIVSRQMSKYPSGERVRYQCRSPYEMFGDEEVMCLNGNWTEPPQCKDSTGKCGPPPPIDNGDITSFPLSVYAPASSVEYQCQNLYQLEGNKRITCRNGQWSEPPKCLHPCVISREIMENYNIALRWTAKQKLYSRTGESVEFVCKRGYRLSSRSHTLRTTCWDGKLEYPTCAKR
modifications: N-linked glycan chains on SCR-17 and SCR-18
B4: Complement Factor H SCR-17H fragment (domain or fragment)
chain: TDCLSLPSFENAIPMGEKKDVYKAGEQVTYTCATYYKMDGASNVTCINSRWTGRPTCRDTS
modifications: also: N-linked glycan chain, site not given here
B5: Complement Factor H SCR-18H fragment (domain or fragment)
chain: TSCVNPPTVQNAYIVSRQMSKYPSGERVRYQCRSPYEMFGDEEVMCLNGNWTEPPQCKDST
modifications: also: N-linked glycan chain, site not given here
B6: Complement Factor H SCR-16/18H fragment (domain or fragment)
chain: GLPCKSPPEISHGVVAHMSDSYQYGEEVTYKCFEGFGIDGPAIAKCLGEKWSHPPSCIKTDCLSLPSFENAIPMGEKKDVYKAGEQVTYTCATYYKMDGASNVTCINSRWTGRPTCRDTSCVNPPTVQNAYIVSRQMSKYPSGERVRYQCRSPYEMFGDEEVMCLNGNWTEPPQCKDST
modifications: N-linked glycan chains on SCR-17 and SCR-18

One data set deals with the molecule itself. The data set can be described thus: AUC; sedimentation velocity, c(s) size distribution (SEDFIT), 50,000 rpm, 20 °C, 10 mM Hepes pH 7.4, 50 mM NaCl (low salt control; data not shown); KD of dimer to monomers from integration of the c(s) peaks.
Regarding B1, the Kd is 180 ± 130 µM and the “stoichiometry N” value amounted to 2.

For B2, the Kd is 2 ± 1 µM.

B3: the Kd stood at 90 ± 20 µM and the “stoichiometry N” value is 2.

On to B4, for which the “stoichiometry N” value stood at 2.

With B5, the Kd is approximately 60 µM and the “stoichiometry N” value amounted to 2.

For the protein B6, the Kd was approximately 10 µM and the percent dimer was 50%.

A further data set concerns the molecule itself. The data set can be described thus: AUC; sedimentation velocity, c(s) size distribution (SEDFIT), 50,000 rpm, 20 °C, 10 mM Hepes pH 7.4, 137 mM NaCl, concentration series 0.2 – 3 mg/ml; KD of dimer to monomers from integration of the c(s) peaks.
Regarding B1, binding was put at a Kd of 590 ± 150 µM.

In the case of B2, the affinity, expressed as Kd, was 3 ± 1 µM; the percent dimer is 80%; the “stoichiometry N” value stood at 2.

In turn, B3 gave a Kd of 31 ± 14 µM and a percent dimer of 40%.

The protein B4 registered a Kd of 5 ± 4 µM and a percent dimer of 80%.

B5 returned a Kd of 37 ± 27 µM and a percent dimer of approximately 50%.

Regarding B6, binding was characterised by a dissociation constant (Kd) of 6 ± 5 µM, the percent dimer stood at 60% and the “stoichiometry N” value is 2.

The values above are taken from paper PMC7859452, “A Dimerization Site at SCR-17/18 in Factor H Clarifies a New Mechanism for Complement Regulatory Control” (Frontiers in Immunology, 2020).
